Measured values as given in patent US20140363441A1 (priority 2013, published 2014).

B1: 23K12 (TCN-031) (antibody, V domains shown)
VH: EVQLVESGGGLVQPGGSLRISCAASGFTVSSNYMSWVRQAPGKGLEWVSVIYSGGSTYYADSVKGRFSFSRDNSKNTVFLQMNSLRAEDTAVYYCARCLSRMRGYGLDVWGQGTTVTVS
VL: DIQMTQSPSSLSASVGDRVTITCRTSQSISSYLNWYQQKPGKAPKLLIYAASSLQSGVPSRFSGSGSGTDFTLTISGLQPEDFATYYCQQSYSMPAFGQGTKLEIK

Experiments:
[1] = target: 23 amino acid synthetic M2e peptide of A/Fort Worth/1/50 (influenza A virus H1N1 A/Fort Worth/1/50); experiment: ELISA on 23mer M2e peptide coated at 1 µg/ml
SEQ ID NO 307 = experiment: peptide ELISA, mAb 5 µg/mL
SEQ ID NO 273 = experiment: peptide ELISA, mAb 5 µg/mL
SEQ ID NO 308 = experiment: peptide ELISA, mAb 5 µg/mL

Molecule	EC50 [1] [µg/mL]	ELISA A450 (SEQ ID NO 307)	ELISA A450 (SEQ ID NO 273)	ELISA A450 (SEQ ID NO 308)
chimeric mouse V-region/human IgG1 kappa 14C2 antibody	0.01			
B1		0.58	0.22	0.62
